Assay results taken from patent US20240325549A1 (HANGZHOU ZHONGMEIHUADONG PHARMACEUTICAL, published 2024).

T1: human GIP receptor (human, UniProt P48546 22-466)
T1 sequence (looked up): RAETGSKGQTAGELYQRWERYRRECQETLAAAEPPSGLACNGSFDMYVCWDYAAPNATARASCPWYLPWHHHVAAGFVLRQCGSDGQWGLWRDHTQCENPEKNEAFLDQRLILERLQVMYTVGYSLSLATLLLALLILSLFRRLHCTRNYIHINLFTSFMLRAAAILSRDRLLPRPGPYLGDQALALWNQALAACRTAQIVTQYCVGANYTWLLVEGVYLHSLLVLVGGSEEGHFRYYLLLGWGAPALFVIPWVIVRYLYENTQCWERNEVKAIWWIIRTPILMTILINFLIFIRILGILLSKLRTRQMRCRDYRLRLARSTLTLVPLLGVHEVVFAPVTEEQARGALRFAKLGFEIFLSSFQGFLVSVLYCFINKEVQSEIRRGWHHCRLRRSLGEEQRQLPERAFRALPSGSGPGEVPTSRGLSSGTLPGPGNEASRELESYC

B1: P001 (peptide)
peptide: YXEGTXTSDYXIXLDKQAQAEFVKWLLKGGPSSGAPPPSK
modifications: Aib at 2, αMePhe at 6, Aib at 11, Aib at 13; C-terminal primary amide
B2: P007 (peptide)
peptide: B1 peptide
modifications: Aib at 2, αMePhe at 6, Aib at 11, Aib at 13; K at position 24 conjugated at the ε-amino with ([2-(2-amino-ethoxy)-ethoxy]-acetyl)2-(γ-Glu)1-CO-(CH2)16-CO2H; C-terminal primary amide
B3: P008 (peptide)
peptide: B1 peptide
modifications: Aib at 2, αMePhe at 6, Aib at 11, Aib at 13; K at position 28 conjugated at the ε-amino with ([2-(2-amino-ethoxy)-ethoxy]-acetyl)2-(γ-Glu)1-CO-(CH2)16-CO2H; C-terminal primary amide
B4: P013 (peptide)
peptide: B1 peptide
modifications: Aib at 2, αMePhe at 6, Aib at 11, Aib at 13; K at position 24 conjugated at the ε-amino with ([2-(2-amino-ethoxy)-ethoxy]-acetyl)2-(γ-Glu)1-CO-(CH2)18-CO2H; C-terminal primary amide

Biological target: T2, human GLP-1 receptor (human, UniProt P43220 24-463)
Assay: cell-based or functional assay

Binder	EC50 value (ratio of the EC50 of the endogenous ligand GLP-1 to the EC50 of the test compound), cAMP reporter gene (luciferase) assay in HEK293/CRE/GLP-1R cells [ratio]
B1	52.1
B2	5.84
B3	4.79
B4	2.41

Biological target: T1, human GIP receptor
Assay: cell-based or functional assay

Binder	EC50 value (ratio of the EC50 of the endogenous ligand GIP to the EC50 of the test compound), LANCE Ultra cAMP assay in HEK293/GIPR cells [ratio]
B1	7.13
B2	1.15
B3	1.67
B4	0.86

Biological target: T2, human GLP-1 receptor
Assay: radioligand competition: displacement of [125I]GLP-1 from membranes of cells over-expressing human GLP-1R; ratio = Ki of GLP-1 / Ki of compound
Procedure: 89 μL of membrane dissolved in binding buffer (50 mM Hepes, pH 7.4, 5 mM MgCl₂, 5 mM EDTA, 0.005% TWEEN, 0.005% HSA) is transferred to a 96-well test plate (5 μg/well). The compound is serially diluted in DMSO, and then, 1 μL of the diluted compound or 100% DMSO is added to the test plate containing the membrane solution. 10 μL of [¹²⁵I] […] The test plate is left at room temperature for 90 minutes. The membrane complexes are harvested into a GF/B plate pre-coated with 0.5% PEI by using a Cell Harvester, and washed for 3 times with 500 μL of pre-cooled elution buffer (50 mM Hepes, pH 7.4, 500 mM NaCl) at 4° C. After drying at 37° C. for 2 hours, 50 μL of scintillation fluid is added to each well. The plate is read with a MicroBeta2 scintillation counter after sealing and settling for at least 1 hour so as to determine the membrane bound radioligand level.

Binder	Ki ratio [ratio]
B1	19.5
B2	0.47
B3	1.09
B4	0.28

Biological target: T1, human GIP receptor
Assay: radioligand competition: displacement of [125I]GIP from membranes of cells over-expressing human GIPR; ratio = Ki of GIP / Ki of compound
Procedure: 98 μL of membrane dissolved in binding buffer (50 mM HEPES pH 7.4, 5 mM MgCl₂, 1 mM CaCl₂, 0.1% BSA, 0.005% Tween-20) is transferred to a 96-well test plate (15 μg/well). The compound is serially diluted in DMSO, and then, 2 μL of the diluted compounds or 100% DMSO is added to the test plate containing the membrane solution. […] The test plate is left at room temperature for 90 minutes. […] After drying at 37° C. for 2 hours, 50 μL of scintillation fluid is added to each well. The plate is read with a MicroBeta2 scintillation counter after sealing and settling for at least 1 hour so as to determine the membrane bound radioligand level.

Binder	Ki ratio [ratio]
B1	8.82
B3	0.16
B4	0.14
